From patent US20160264649A1

Assays:
Test in all cases: cell-based or functional assay
[1] = biological target: HIV-1 MGRM-AG-011 Env (HIV-1)
[2] = biological target: HIV-1 92WR024 Env (HIV-1)
[3] = biological target: HIV-1 92UG031 Env (HIV-1)
[4] = biological target: HIV-1 MGRM-A-005 Env (HIV-1)
[5] = biological target: HIV-1 MGRM-A-008 Env (HIV-1)
[6] = biological target: HIV-1 93WR029 Env (HIV-1)
[7] = biological target: HIV-1 MGRM-A-014 Env (HIV-1)
[8] = biological target: HIV-1 MGRM-AE-002 Env (HIV-1)
[9] = biological target: HIV-1 MGRM-AG-003 Env (HIV-1)
[10] = biological target: HIV-1 MGRM-AG-002 Env (HIV-1)
[11] = biological target: HIV-1 92WR020 Env (HIV-1)
[12] = biological target: HIV-1 MGRM-A-012 Env (HIV-1)
[13] = biological target: HIV-1 MGRM-AE-006 Env (HIV-1)
[14] = biological target: HIV-1 MGRM-AG-012 Env (HIV-1)
[15] = biological target: HIV-1 92WR026 Env (HIV-1)
[16] = biological target: HIV-1 94UG103 Env (HIV-1)
[17] = biological target: HIV-1 93UG077 Env (HIV-1)
HIV-1 VLGCA1 Env (HIV-1) = biological target: HIV-1 VLGCA1 Env (HIV-1)
[18] = biological target: HIV-1 MGRM-A-009 Env (HIV-1)
[19] = biological target: HIV-1 92RW008 Env (HIV-1)
[20] = biological target: HIV-1 MGRM-AE-008 Env (HIV-1)
[21] = biological target: HIV-1 94KE105 Env (HIV-1)
[22] = biological target: HIV-1 MGRM-AG-008 Env (HIV-1)
[23] = biological target: HIV-1 MGRM-A-004 Env (HIV-1)
[24] = biological target: HIV-1 Env of isolate MG RM-C-020 (subtype C) (HIV-1)
[25] = biological target: HIV-1 Env of isolate MG RM-C-028 (subtype C) (HIV-1)
HIV-1 CMU02 Env (HIV-1) = biological target: HIV-1 CMU02 Env (HIV-1)
[26] = biological target: HIV-1 MGRM-AG-009 Env (HIV-1)
[27] = biological target: HIV-1 MGRM-A-010 Env (HIV-1)
[28] = biological target: HIV-1 92WR009 Env (HIV-1)
[29] = biological target: HIV-1 MGRM-A-006 Env (HIV-1)
[30] = biological target: HIV-1 MGRM-AE-003 Env (HIV-1)
[31] = biological target: HIV-1 MGRM-AG-001 Env (HIV-1)
[32] = biological target: HIV-1 MGRM-A-001 Env (HIV-1)
[33] = biological target: HIV-1 Env of isolate MG RM-C-026 (subtype C) (HIV-1)
[34] = biological target: HIV-1 92UG037 Env (HIV-1)
[35] = biological target: HIV-1 MGRM-AE-007 Env (HIV-1)
[36] = biological target: HIV-1 Env of isolate MG RM-C-023 (subtype C) (HIV-1)
[37] = biological target: HIV-1 Env of isolate MG RM-C-027 (subtype C) (HIV-1)
[38] = biological target: HIV-1 MGRM-AE-001 Env (HIV-1)
[39] = biological target: HIV-1 MGRM-AG-013 Env (HIV-1)
[40] = biological target: HIV-1 MGRM-A-013 Env (HIV-1)
[41] = biological target: HIV-1 MGRM-A-011 Env (HIV-1)
[42] = biological target: HIV-1 92TH021 Env (HIV-1)
[43] = biological target: HIV-1 Env of isolate MG RM-C-025 (subtype C) (HIV-1)
[44] = biological target: HIV-1 MGRM-AE-005 Env (HIV-1)
[45] = biological target: HIV-1 MGRM-A-002 Env (HIV-1)
[46] = biological target: HIV-1 Env of isolate MG RM-C-019 (subtype C) (HIV-1)
[47] = biological target: HIV-1 Env of isolate MG RM-C-024 (subtype C) (HIV-1)
[48] = biological target: HIV-1 MGRM-A-007 Env (HIV-1)
[49] = biological target: HIV-1 MGRM-AE-004 Env (HIV-1)
[50] = biological target: HIV-1 Env of isolate MG RM-C-022 (subtype C) (HIV-1)
[51] = biological target: HIV-1 MGRM-AG-006 Env (HIV-1)
[52] = biological target: HIV-1 MGRM-AG-005 Env (HIV-1)
[53] = biological target: HIV-1 92WR021 Env (HIV-1)
[54] = biological target: HIV-1 MGRM-A-003 Env (HIV-1)

5147_N06 (PGT-130) (antibody)
IC50 [1]: > 50 µg/mL
IC50 [2]: > 50 µg/mL
IC50 [3]: > 50 µg/mL
IC50 [4]: > 50 µg/mL
IC50 [5]: > 50 µg/mL
IC50 [6]: 34.3 µg/mL
IC50 [7]: 0.161 µg/mL
IC50 [8]: 1.53 µg/mL
IC50 [9]: 0.041 µg/mL
IC50 [10]: > 50 µg/mL
IC50 [11]: 0.039 µg/mL
IC50 [12]: > 50 µg/mL
IC50 [13]: 0.009 µg/mL
IC50 [14]: > 50 µg/mL
IC50 [15]: 0.037 µg/mL
IC50 [16]: 1.4 µg/mL
IC50 [17]: 21.4 µg/mL
IC50 (HIV-1 VLGCA1 Env (HIV-1)): > 50 µg/mL
IC50 [18]: 0.308 µg/mL
IC50 [19]: 0.089 µg/mL
IC50 [20]: > 50 µg/mL
IC50 [21]: 0.004 µg/mL
IC50 [22]: > 50 µg/mL
IC50 [23]: > 50 µg/mL
IC50 [24]: > 50 µg/mL
IC50 [25]: > 50 µg/mL
IC50 (HIV-1 CMU02 Env (HIV-1)): > 50 µg/mL
IC50 [26]: 9.46 µg/mL
IC50 [27]: 0.005 µg/mL
IC50 [28]: 1.27 µg/mL
IC50 [29]: > 50 µg/mL
IC50 [30]: 0.337 µg/mL
IC50 [31]: > 50 µg/mL
IC50 [32]: > 50 µg/mL
IC50 [33]: 0.036 µg/mL
IC50 [34]: 0.061 µg/mL
IC50 [35]: 0.083 µg/mL
IC50 [36]: 0.151 µg/mL
IC50 [37]: 0.008 µg/mL
IC50 [38]: 1 µg/mL
IC50 [39]: 0.01 µg/mL
IC50 [40]: > 50 µg/mL
IC50 [41]: > 50 µg/mL
IC50 [42]: 0.009 µg/mL
IC50 [43]: > 50 µg/mL
IC50 [44]: 0.006 µg/mL
IC50 [45]: 0.01 µg/mL
IC50 [46]: 0.01 µg/mL
IC50 [47]: > 50 µg/mL
IC50 [48]: > 50 µg/mL
IC50 [49]: 2.43 µg/mL
IC50 [50]: 0.127 µg/mL
IC50 [51]: 0.009 µg/mL
IC50 [52]: 0.54 µg/mL
IC50 [53]: 0.004 µg/mL
IC50 [54]: > 50 µg/mL

5343_B08 (PGT-135) (antibody)
IC50 [1]: > 50 µg/mL
IC50 [2]: > 50 µg/mL
IC50 [3]: > 50 µg/mL
IC50 [4]: > 50 µg/mL
IC50 [5]: > 50 µg/mL
IC50 [6]: > 50 µg/mL
IC50 [7]: 0.636 µg/mL
IC50 [8]: > 50 µg/mL
IC50 [9]: > 50 µg/mL
IC50 [10]: > 50 µg/mL
IC50 [11]: 0.067 µg/mL
IC50 [12]: > 50 µg/mL
IC50 [13]: > 50 µg/mL
IC50 [14]: 41.9 µg/mL
IC50 [15]: 0.068 µg/mL
IC50 [16]: > 50 µg/mL
IC50 [17]: > 50 µg/mL
IC50 (HIV-1 VLGCA1 Env (HIV-1)): > 50 µg/mL
IC50 [18]: > 50 µg/mL
IC50 [19]: 1.42 µg/mL
IC50 [20]: > 50 µg/mL
IC50 [21]: 0.063 µg/mL
IC50 [22]: > 50 µg/mL
IC50 [23]: > 50 µg/mL
IC50 [24]: > 50 µg/mL
IC50 [25]: 1.47 µg/mL
IC50 (HIV-1 CMU02 Env (HIV-1)): > 50 µg/mL
IC50 [26]: > 50 µg/mL
IC50 [27]: > 50 µg/mL
IC50 [28]: > 50 µg/mL
IC50 [29]: > 50 µg/mL
IC50 [30]: > 50 µg/mL
IC50 [31]: > 50 µg/mL
IC50 [32]: > 50 µg/mL
IC50 [33]: 0.004 µg/mL
IC50 [34]: 3.67 µg/mL
IC50 [35]: > 50 µg/mL
IC50 [36]: 0.061 µg/mL
IC50 [37]: > 50 µg/mL
IC50 [38]: > 50 µg/mL
IC50 [39]: > 50 µg/mL
IC50 [40]: > 50 µg/mL
IC50 [41]: > 50 µg/mL
IC50 [42]: > 50 µg/mL
IC50 [43]: > 50 µg/mL
IC50 [44]: > 50 µg/mL
IC50 [45]: > 50 µg/mL
IC50 [46]: 0.264 µg/mL
IC50 [47]: > 50 µg/mL
IC50 [48]: > 50 µg/mL
IC50 [49]: > 50 µg/mL
IC50 [50]: > 50 µg/mL
IC50 [51]: 17.9 µg/mL
IC50 [52]: > 50 µg/mL
IC50 [53]: > 50 µg/mL
IC50 [54]: > 50 µg/mL
